Measured values published in patent US20140274782A1, “AFFINITY REAGENTS AND METHODS FOR DETECTION, PURIFICATION, AND PROTEOMIC ANALYSIS OF METHYLATED PROTEINS” (The Board of Trustees of the Leland Stanford Junior …, priority 2013, published 2014).

B1: Cytoplasmic FMR1-interacting protein 1 (protein, UniProt Q7L576 1-1253, looked up)
Cytoplasmic FMR1-interacting …: MAAQVTLEDALSNVDLLEELPLPDQQPCIEPPPSSLLYQPNFNTNFEDRNAFVTGIARYIEQATVHSSMNEMLEEGQEYAVMLYTWRSCSRAIPQVKCNEQPNRVEIYEKTVEVLEPEVTKLMNFMYFQRNAIERFCGEVRRLCHAERRKDFVSEAYLITLGKFINMFAVLDELKNMKCSVKNDHSAYKRAAQFLRKMADPQSIQESQNLSMFLANHNKITQSLQQQLEVISGYEELLADIVNLCVDYYENRMYLTPSEKHMLLKVMGFGLYLMDGSVSNIYKLDAKKRINLSKIDKYFKQLQVVPLFGDMQIELARYIKTSAHYEENKSRWTCTSSGSSPQYNICEQMIQIREDHMRFISELARYSNSEVVTGSGRQEAQKTDAEYRKLFDLALQGLQLLSQWSAHVMEVYSWKLVHPTDKYSNKDCPDSAEEYERATRYNYTSEEKFALVEVIAMIKGLQVLMGRMESVFNHAIRHTVYAALQDFSQVTLREPLRQAIKKKKNVIQSVLQAIRKTVCDWETGHEPFNDPALRGEKDPKSGFDIKVPRRAVGPSSTQLYMVRTMLESLIADKSGSKKTLRSSLEGPTILDIEKFHRESFFYTHLINFSETLQQCCDLSQLWFREFFLELTMGRRIQFPIEMSMPWILTDHILETKEASMMEYVLYSLDLYNDSAHYALTRFNKQFLYDEIEAEVNLCFDQFVYKLADQIFAYYKVMAGSLLLDKRLRSECKNQGATIHLPPSNRYETLLKQRHVQLLGRSIDLNRLITQRVSAAMYKSLELAIGRFESEDLTSIVELDGLLEINRMTHKLLSRYLTLDGFDAMFREANHNVSAPYGRITLHVFWELNYDFLPNYCYNGSTNRFVRTVLPFSQEFQRDKQPNAQPQYLHGSKALNLAYSSIYGSYRNFVGPPHFQVICRLLGYQGIAVVMEELLKVVKSLLQGTILQYVKTLMEVMPKICRLPRHEYGSPGILEFFHHQLKDIVEYAELKTVCFQNLREVGNAILFCLLIEQSLSLEEVCDLLHAAPFQNILPRVHVKEGERLDAKMKRLESKYAPLHLVPLIERLGTPQQIAIAREGDLLTKERLCCGLSMFEVILTRIRSFLDDPIWRGPLPSNGVMHVDECVEFHRLWSAMQFVYCIPVGTHEFTVEQCFGDGLHWAGCMIIVLLGQQRRFAVLDFCYHLLKVQKHDGKDEIIKNVPLKKMVERIRKFQILNDEIITILDKYLKSGDGEGTPVEHVRCFQPPIHQSLASS
B2: Probable ATP-dependent RNA helicase DDX23 (protein, UniProt Q9BUQ8 1-820, looked up)
Probable ATP-dependent RNA …: MAGELADKKDRDASPSKEERKRSRTPDRERDRDRDRKSSPSKDRKRHRSRDRRRGGSRSRSRSRSKSAERERRHKERERDKERDRNKKDRDRDKDGHRRDKDRKRSSLSPGRGKDFKSRKDRDSKKDEEDEHGDKKPKAQPLSLEELLAKKKAEEEAEAKPKFLSKAEREAEALKRRQQEVEERQRMLEEERKKRKQFQDLGRKMLEDPQERERRERRERMERETNGNEDEEGRQKIREEKDKSKELHAIKERYLGGIKKRRRTRHLNDRKFVFEWDASEDTSIDYNPLYKERHQVQLLGRGFIAGIDLKQQKREQSRFYGDLMEKRRTLEEKEQEEARLRKLRKKEAKQRWDDRHWSQKKLDEMTDRDWRIFREDYSITTKGGKIPNPIRSWKDSSLPPHILEVIDKCGYKEPTPIQRQAIPIGLQNRDIIGVAETGSGKTAAFLIPLLVWITTLPKIDRIEESDQGPYAIILAPTRELAQQIEEETIKFGKPLGIRTVAVIGGISREDQGFRLRMGCEIVIATPGRLIDVLENRYLVLSRCTYVVLDEADRMIDMGFEPDVQKILEHMPVSNQKPDTDEAEDPEKMLANFESGKHKYRQTVMFTATMPPAVERLARSYLRRPAVVYIGSAGKPHERVEQKVFLMSESEKRKKLLAILEQGFDPPIIIFVNQKKGCDVLAKSLEKMGYNACTLHGGKGQEQREFALSNLKAGAKDILVATDVAGRGIDIQDVSMVVNYDMAKNIEDYIHRIGRTGRAGKSGVAITFLTKEDSAVFYELKQAILESPVSSCPPELANHPDAQHKPGTILTKKRREETIFA
B3: Protein syndesmos (protein, UniProt Q9BRJ7 1-211, looked up)
Tudor-interacting repair …: MSTAAVPELKQISRVEAMRLGPGWSHSCHAMLYAANPGQLFGRIPMRFSVLMQMRFDGLLGFPGGFVDRRFWSLEDGLNRVLGLGLGCLRLTEADYLSSHLTEGPHRVVAHLYARQLTLEQLHAVEISAVHSRDHGLEVLGLVRVPLYTQKDRVGGFPNFLSNAFVSTAKCQLLFALKVLNMMPEEKLVEALAAATEKQKKALEKLLPASS
B4: Probable ATP-dependent RNA helicase DDX46 (protein, UniProt Q7L014 2-1031, looked up)
Probable ATP-dependent RNA …: GRESRHYRKRSASRGRSGSRSRSRSPSDKRSKRGDDRRSRSRDRDRRRERSRSRDKRRSRSRDRKRLRRSRSRERDRSRERRRSRSRDRRRSRSRSRGRRSRSSSPGNKSKKTENRSRSKEKTDGGESSKEKKKDKDDKEDEKEKDAGNFDQNKLEEEMRKRKERVEKWREEQRKKAMENIGELKKEIEEMKQGKKWSLEDDDDDEDDPAEAEKEGNEMEGEELDPLDAYMEEVKEEVKKFNMRSVKGGGGNEKKSGPTVTKVVTVVTTKKAVVDSDKKKGELMENDQDAMEYSSEEEEVDLQTALTGYQTKQRKLLEPVDHGKIEYEPFRKNFYVEVPELAKMSQEEVNVFRLEMEGITVKGKGCPKPIKSWVQCGISMKILNSLKKHGYEKPTPIQTQAIPAIMSGRDLIGIAKTGSGKTIAFLLPMFRHIMDQRSLEEGEGPIAVIMTPTRELALQITKECKKFSKTLGLRVVCVYGGTGISEQIAELKRGAEIIVCTPGRMIDMLAANSGRVTNLRRVTYVVLDEADRMFDMGFEPQVMRIVDNVRPDRQTVMFSATFPRAMEALARRILSKPIEVQVGGRSVVCSDVEQQVIVIEEEKKFLKLLELLGHYQESGSVIIFVDKQEHADGLLKDLMRASYPCMSLHGGIDQYDRDSIINDFKNGTCKLLVATSVAARGLDVKHLILVVNYSCPNHYEDYVHRAGRTGRAGNKGYAYTFITEDQARYAGDIIKALELSGTAVPPDLEKLWSDFKDQQKAEGKIIKKSSGFSGKGFKFDETEQALANERKKLQKAALGLQDSDDEDAAVDIDEQIESMFNSKKRVKDMAAPGTSSVPAPTAGNAEKLEIAKRLALRINAQKNLGIESQDVMQQATNAILRGGTILAPTVSAKTIAEQLAEKINAKLNYVPLEKQEEERQDGGQNESFKRYEEELEINDFPQTARWKVTSKEALQRISEYSEAAITIRGTYFPPGKEPKEGERKIYLAIESANELAVQKAKAEITRLIKEELIRLQNSYQPTNKGRYKVL

Legend:
3×MBT domain of L3MBTL1 = experiment: Triple SILAC pull-down, 3xMBT/3xMBTD355N ratio (cytoplasmic, nuclear and chromatin fractions of 293T cells); format: binding, human; conditions: SILAC ratio, pull-down by 3xMBT vs 3xMBTD355N, 293T cells;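 note: proteins quantified with MaxQuant, requiring at least two unique peptides and quantification in both label directions, normalized to the mean of proteins from a digested loading control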
G9a and GLP = target: T1, G9a and GLP (Homo sapiens, UniProt Q96KQ7+Q9H9B1); experiment: Triple SILAC pull-down after UNC0638 treatment of 293T cells, DMSO/UNC0638 ratio of protein captured by 3×MBT; format: cell-based; set-up: cells were treated for 24 hours with UNC0638 at 2.5 μM or DMSO vehicle control; endogenous in cells; host or cells: HEK 293T; conditions: SILAC ratio of protein captured by 3xMBT, 293T cells treated 24 hours with UNC0638 at 2.5 μM or DMSO;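 note: mass spectrometry (Q-Exactive) SILAC quantitation, DMSO/UNC0638 ratio computed after subtracting 3×MBTD355N mutant pull-down background, only proteins with at least twofold 3×MBT over mutant signal considered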
T1 sequence (Q96KQ7 2-1210 limits assumed): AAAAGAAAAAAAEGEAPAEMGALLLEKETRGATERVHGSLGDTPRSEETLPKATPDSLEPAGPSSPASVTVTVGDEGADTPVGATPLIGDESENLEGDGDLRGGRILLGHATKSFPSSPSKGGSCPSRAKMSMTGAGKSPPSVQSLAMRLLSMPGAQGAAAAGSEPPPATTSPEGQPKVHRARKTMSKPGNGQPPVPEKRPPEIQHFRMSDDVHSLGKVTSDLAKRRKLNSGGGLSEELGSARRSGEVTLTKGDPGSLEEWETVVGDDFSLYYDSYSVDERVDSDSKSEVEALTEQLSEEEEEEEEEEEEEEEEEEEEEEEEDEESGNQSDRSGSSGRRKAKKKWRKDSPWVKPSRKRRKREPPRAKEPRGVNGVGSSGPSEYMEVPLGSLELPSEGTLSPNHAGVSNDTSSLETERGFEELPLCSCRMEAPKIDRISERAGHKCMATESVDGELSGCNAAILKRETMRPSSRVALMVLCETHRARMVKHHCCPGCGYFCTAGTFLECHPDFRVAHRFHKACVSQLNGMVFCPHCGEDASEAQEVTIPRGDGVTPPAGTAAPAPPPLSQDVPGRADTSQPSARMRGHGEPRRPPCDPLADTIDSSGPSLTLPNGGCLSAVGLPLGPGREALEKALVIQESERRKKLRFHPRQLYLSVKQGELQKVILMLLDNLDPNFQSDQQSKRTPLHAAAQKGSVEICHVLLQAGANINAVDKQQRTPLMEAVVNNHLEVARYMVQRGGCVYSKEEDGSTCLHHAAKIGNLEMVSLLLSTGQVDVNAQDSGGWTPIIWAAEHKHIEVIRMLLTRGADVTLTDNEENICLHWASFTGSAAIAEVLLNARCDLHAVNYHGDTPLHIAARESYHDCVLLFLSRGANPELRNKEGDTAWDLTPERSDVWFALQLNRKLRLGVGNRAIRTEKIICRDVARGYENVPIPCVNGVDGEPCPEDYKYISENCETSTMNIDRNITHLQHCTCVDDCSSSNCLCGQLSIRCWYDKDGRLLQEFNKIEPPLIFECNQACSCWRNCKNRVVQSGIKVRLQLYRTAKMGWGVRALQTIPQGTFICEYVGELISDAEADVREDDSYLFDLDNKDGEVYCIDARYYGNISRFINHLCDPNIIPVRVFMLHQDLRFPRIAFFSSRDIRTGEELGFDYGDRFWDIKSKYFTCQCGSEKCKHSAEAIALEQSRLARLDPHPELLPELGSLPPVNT
T1 sequence (Q9H9B1 2-1298 limits assumed): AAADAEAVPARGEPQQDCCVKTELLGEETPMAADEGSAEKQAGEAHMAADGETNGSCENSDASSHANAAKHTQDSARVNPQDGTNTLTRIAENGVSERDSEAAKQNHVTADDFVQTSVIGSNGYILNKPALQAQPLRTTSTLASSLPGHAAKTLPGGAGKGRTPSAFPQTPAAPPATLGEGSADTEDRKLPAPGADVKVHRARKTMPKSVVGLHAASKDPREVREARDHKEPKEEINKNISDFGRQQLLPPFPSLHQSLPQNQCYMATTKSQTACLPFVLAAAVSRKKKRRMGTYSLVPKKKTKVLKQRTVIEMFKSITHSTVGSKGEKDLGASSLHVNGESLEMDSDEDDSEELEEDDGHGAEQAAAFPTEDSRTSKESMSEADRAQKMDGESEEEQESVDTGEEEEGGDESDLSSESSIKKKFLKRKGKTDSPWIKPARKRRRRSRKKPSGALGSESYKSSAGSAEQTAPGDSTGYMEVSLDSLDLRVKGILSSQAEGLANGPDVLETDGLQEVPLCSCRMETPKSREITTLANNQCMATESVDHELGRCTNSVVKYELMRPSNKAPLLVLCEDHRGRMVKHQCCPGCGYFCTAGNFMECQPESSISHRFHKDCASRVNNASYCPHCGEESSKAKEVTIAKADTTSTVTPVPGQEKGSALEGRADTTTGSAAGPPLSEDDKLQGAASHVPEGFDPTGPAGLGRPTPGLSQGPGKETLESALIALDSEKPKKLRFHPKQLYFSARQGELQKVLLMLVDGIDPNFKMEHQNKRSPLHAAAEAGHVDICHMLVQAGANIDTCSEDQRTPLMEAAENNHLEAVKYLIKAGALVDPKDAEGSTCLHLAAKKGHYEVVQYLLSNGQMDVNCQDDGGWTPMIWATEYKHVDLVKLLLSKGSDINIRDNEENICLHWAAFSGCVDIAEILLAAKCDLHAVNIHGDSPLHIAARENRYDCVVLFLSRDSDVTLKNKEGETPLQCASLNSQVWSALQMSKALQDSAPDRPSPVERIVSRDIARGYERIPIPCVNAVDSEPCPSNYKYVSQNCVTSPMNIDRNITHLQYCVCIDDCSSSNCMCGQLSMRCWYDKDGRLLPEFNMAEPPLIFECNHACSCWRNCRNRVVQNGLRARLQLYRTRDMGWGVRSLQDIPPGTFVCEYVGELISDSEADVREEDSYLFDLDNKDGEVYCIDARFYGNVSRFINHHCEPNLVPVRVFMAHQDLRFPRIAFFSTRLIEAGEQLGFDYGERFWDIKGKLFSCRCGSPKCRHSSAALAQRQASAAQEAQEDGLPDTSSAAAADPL

| Molecule | Protein Ratios 3xMBT/D355N (3×MBT domain of L3MBTL1) | Protein Ratios DMSO/UNC0638 (G9a and GLP) |
| --- | --- | --- |
| B1 | 3.4 | 1.4 |
| B2 | 4.8 | 1.3 |
| B3 | 3.5 | 1.3 |
| B4 | 5.2 | 1.4 |
